Results taken from publication PMC9854190.

Molecular target: HA-Akt, P31749
Assay: co-immunoprecipitation (FLAG beads), HA-Akt band quantified
Conditions: chain shown with the change, HEK-293 cells expressing D3R, n = 3, read off a plot

Chain of HA-Akt, P31749 (P31749 whole entry): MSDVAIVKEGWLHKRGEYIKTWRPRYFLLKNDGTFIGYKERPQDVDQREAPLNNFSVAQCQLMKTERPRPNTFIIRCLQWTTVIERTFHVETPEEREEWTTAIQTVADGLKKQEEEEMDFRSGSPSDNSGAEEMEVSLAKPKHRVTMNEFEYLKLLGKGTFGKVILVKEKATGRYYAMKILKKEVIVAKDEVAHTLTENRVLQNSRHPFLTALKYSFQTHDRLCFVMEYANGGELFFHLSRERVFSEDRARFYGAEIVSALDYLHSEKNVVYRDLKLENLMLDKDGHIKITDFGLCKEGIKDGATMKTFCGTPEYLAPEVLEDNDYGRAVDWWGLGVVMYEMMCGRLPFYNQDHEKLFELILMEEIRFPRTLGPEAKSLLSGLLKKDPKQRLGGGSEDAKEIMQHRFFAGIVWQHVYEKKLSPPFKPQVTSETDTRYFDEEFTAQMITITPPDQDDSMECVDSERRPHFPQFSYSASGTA

B1: FLAG-USP33, Q8TEY7-2 T154A (protein)
chain: MSAFRNHCPHLDSVGEITKEDLIQKSLGTCQDCKVQGPNLWACLENRCSYVGCGESQVDHSTIHSQETKHYLTVNLTTLRVWCYACSKEVFLDRKLGTQPSLPHVRQPHQIQENSVQDFKIPSNTTLKTPLVAVFDDLDIEADEEDELRARGLAGLKNIGNTCYMNAALQALSNCPPLTQFFLDCGGLARTDKKPAICKSYLKLMTELWHKSRPGSVVPTTLFQGIKTVNPTFRGYSQQDAQEFLRCLMDLLHEELKEQVMEVEEDPQTITTEETMEEDKSQSDVDFQSCESCSNSDRAENENGSRCFSEDNNETTMLIQDDENNSEMSKDWQKEKMCNKINKVNSEGEFDKDRDSISETVDLNNQETVKVQIHSRASEYITDVHSNDLSTPQILPSNEGVNPRLSASPPKSGNLWPGLAPPHKKAQSASPKRKKQHKKYRSVISDIFDGTIISSVQCLTCDRVSVTLETFQDLSLPIPGKEDLAKLHSSSHPTSIVKAGSCGEAYAPQGWIAFFMEYVKRFVVSCVPSWFWGPVVTLQDCLAAFFARDELKGDNMYSCEKCKKLRNGVKFCKVQNFPEILCIHLKRFRHELMFSTKISTHVSFPLEGLDLQPFLAKDSPAQIVTYDLLSVICHHGTASSGHYIAYCRNNLNNLWYEFDDQSVTEVSESTVQNAEAYVLFYRKSSEEAQKERRRISNLLNIMEPSLLQFYISRQWLNKFKTFAEPGPISNNDFLCIHGGVPPRKAGYIEDLVLMLPQNIWDNLYSRYGGGPAVNHLYICHTCQIEAEKIEKRRKTELEIFIRLNRAFQKEDSPATFYCISMQWFREWESFVKGKDGDPPGPIDNTKIAVTKCGNVMLRQGADSGQISEETWNFLQSIYGGGPEVILRPPVVHVDPDILQAEEKIEVETRSL
Quin +, parent: est. 0.97
  other: Folds of Co-IP: 0.74 fold
Quin w/+ (desensitization condition), parent: est. 1.7
  other: Folds of Co-IP: 0.86 fold
Veh (Quin -), parent: est. 0.97
  other: Folds of Co-IP: 0.9 fold
